Laboratory results taken from patent US20200231688A1 (published 2020).
Positions count from the first letter of the chain named.

T1: soluble recombinant human IL-6 receptor (SR344) (human, UniProt P08887 20-344)
T1 construct: range 1-344; also called soluble IL-6 receptor; soluble human IL-6 receptor
T1 sequence (looked up): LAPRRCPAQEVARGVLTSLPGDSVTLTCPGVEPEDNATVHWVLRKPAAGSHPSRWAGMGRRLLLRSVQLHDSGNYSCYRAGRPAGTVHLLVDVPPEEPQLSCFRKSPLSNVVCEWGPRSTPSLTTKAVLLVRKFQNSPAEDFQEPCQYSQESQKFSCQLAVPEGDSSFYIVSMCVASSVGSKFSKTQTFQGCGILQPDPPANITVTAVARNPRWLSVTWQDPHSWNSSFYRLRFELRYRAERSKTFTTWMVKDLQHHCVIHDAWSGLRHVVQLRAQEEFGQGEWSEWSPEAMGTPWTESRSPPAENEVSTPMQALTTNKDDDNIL

B1: H3pI/L73 (antibody, human IgG1, kappa, V domains shown)
VH: QVQLQESGPGLVKPSETLSLTCAVSGHSISHDHAHSWVRQPPGEGLEWIGYISYSGITNYNPSLKGRVTISRDTSKNQFSLKLSSVTAADTAAYYCARSLARTTAMDYWGEGTLVTVSS
VL: DIQMTQSPSSLSASVGDSVTITCQASQHISSHLNWYQQKPGKAPELLIYYGSHLHSGVPSRFSGSGSGTDFTFTISSLEAEDAATYYCGQGNRLPYTFGQGTKVEIER
notes: also called H3pI-IgG1/L73-kappa
B2: Fv3-M73 (antibody, V domains shown)
VH: QVQLQESGPGLVKPSETLSLTCAVSGHSISHDHAWSWVRQPPGEGLEWIGFISYSGITNYNPTLQGRVTISRDNSKNTLYLQMNSLRAEDTAVYYCARSLARTTAMDYWGEGTLVTVSS
VL: B1 VL with Q27R, H28D, H55L
notes: Fully humanized IL-6 receptor antibody; also called VH4-M73/VL1-kappa
B3: Fv4-M73 (antibody, V domains shown)
VH: B2 VH with T63S
VL: B1 VL with Q27T, H28D, H55L
notes: Fully humanized IL-6 receptor antibody; also called VH3-M73/VL3-kappa
B4: TOCILIZUMAB (antibody, human IgG1, kappa)
heavy: not shown
light: not shown
notes: Humanized anti-IL-6 receptor IgG1 antibody; H chain WT-IgG1, L chain WT-kappa; also called TOCILIZUMAB-IgG1; WT-IgG1/WT-kappa

Key:
[1] = molecular target: T1, soluble recombinant human IL-6 receptor …; test: SPR Biacore T100; immobilised biotinylated SR344 as membrane-type IL-6 receptor; against TOCILIZUMAB
Protocol: (§1) The binding to membrane-type IL-6 receptor was assessed by evaluating the binding to soluble human IL-6 receptor immobilized onto the sensor chip. SR344 was biotinylated by a method known to those skilled in the art. Based on the affinity between biotin and streptavidin, biotinylated soluble human IL-6 receptor was immobilized onto the sensor chip via streptavidin. All measurements were conducted at 37° C. The mobile phase buffer was 10 mM MES (pH 5.8), 150 mM NaCl, and 0.05% Tween 20. […] The dissociation rate constant (kd (1/s)) at pH 5.8 was calculated using Biacore T100 Evaluation Software (GE Healthcare) by fitting only the dissociation phase at pH 5.8. The sample concentration was 0.25 pg/ml. Binding was carried out in 10 mM MES (pH 7.4), 150 mM NaCl, and 0.05% Tween 20, and dissociation was carried out in 10 mM MES (pH 5.8), 150 mM NaCl, and 0.05% Tween 20. Likewise, the dissociation rate constant (kd (1/s)) at pH 7.4 was calculated using Biacore T100 Evaluation Software (GE Healthcare) by fitting only the dissociation phase at pH 7.4. The sample concentration was 0.5 pg/ml. Binding was carried out in 10 mM MES (pH 7.4), 150 mM NaCl, and 0.05% Tween 20, and dissociation was carried out in 10 mM MES (pH 7.4), 150 mM NaCl, and 0.05% Tween 20.

[2] = molecular target: T1, soluble recombinant human IL-6 receptor …; test: SPR Biacore T100, 37 C; biotinylated SR344 immobilised via streptavidin as membrane-type IL-6 receptor; ratio of dissociation rates
Protocol: as §1

Row | Binder | fold increase of pH dependence of the dissociation rate against TOCILIZUMAB [1] [times] | fold improvement of pH dependency of the dissociation rate against TOCILIZUMAB [1] [times] | kd(pH 5.8)/kd(pH 7.4) pH … [2]
1 | B1 | ~2.6 | – | –
2 | B2 | – | ~11 | 10.9
3 | B3 | – | ~10 | 10.1
4 | B4 | – | – | 1
